Results reported in patent publication US20140235701, “NGF APTAMER AND APPLICATION THEREOF” (RIBOMIC INC., published 2014).
Changes are numbered by the printed parent chain.

T1: NT-4 (neurotrophin-4) (Homo sapiens, UniProt P34130 P34130:81-210)
T1 sequence: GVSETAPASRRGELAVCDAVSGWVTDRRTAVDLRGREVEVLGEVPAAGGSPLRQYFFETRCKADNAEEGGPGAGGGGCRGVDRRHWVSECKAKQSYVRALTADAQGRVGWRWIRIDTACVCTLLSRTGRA

B1: SEQ ID NO: 30 (ssRNA)
RNA: GGGAGAACUUCGACCAGAAGUUGGCACAUCCUGCUGCGAAGGUUCCGUCUUCGUGGCUGUACUAUGUGCGCAUACAUGGAUCCUC
modifications: 2'-F C/U, dA, 2'-OH G
B2: SEQ ID NO: 22 (ssRNA)
RNA: GGGAGAACUUCGACCAGAAGUUGGCACAUCCUGCUGCGUAGUUUCCGUCUUCGUGGCUGUUAUGUGCGCAUACAUGGAUCCUC
modifications: 2'-F C/U, dA, 2'-OH G
B3: SEQ ID NO: 27 (ssRNA)
RNA: B2 RNA with U39C, U51G
modifications: 2'-F C/U, dA, 2'-OH G
B4: SEQ ID NO: 32 (ssRNA)
RNA: B2 RNA with U39G, G47U
modifications: 2'-F C/U, dA, 2'-OH G
B5: SEQ ID NO: 37 (ssRNA)
RNA: B2 RNA with G36A, G47U
modifications: 2'-F C/U, dA, 2'-OH G
B6: SEQ ID NO: 34 (ssRNA)
RNA: B2 RNA with U35C, U51G
modifications: 2'-F C/U, dA, 2'-OH G
B7: SEQ ID NO: 35 (ssRNA)
RNA: B2 RNA with C34U, G47U, U51A
modifications: 2'-F C/U, dA, 2'-OH G
B8: SEQ ID NO: 33 (ssRNA)
RNA: B2 RNA with U35C, C46A, G47A, C52G, U58G, G59U, U60G
modifications: 2'-F C/U, dA, 2'-OH G
B9: SEQ ID NO: 48 (ssRNA)
RNA: B2 RNA with U39G, U51C, C52G
modifications: 2'-F C/U, dA, 2'-OH G
B10: SEQ ID NO: 25 (ssRNA)
RNA: B2 RNA with U39C, U51A
modifications: 2'-F C/U, dA, 2'-OH G
B11: SEQ ID NO: 24 (ssRNA)
RNA: B2 RNA with U39A, U51C
modifications: 2'-F C/U, dA, 2'-OH G
B12: SEQ ID NO: 28 (ssRNA)
RNA: B2 RNA with G47A, U51G
modifications: 2'-F C/U, dA, 2'-OH G
B13: SEQ ID NO: 31 (ssRNA)
RNA: B2 RNA with U39C, G47C, U51G
modifications: 2'-F C/U, dA, 2'-OH G
B14: SEQ ID NO: 29 (ssRNA)
RNA: GGGAGAACUUCGACCAGAAGUUCACAUCCUGCUGCGAAGUUUCCUUCUUCGUGGCUGUUAUGUGCGCAUACAUGGAUCCUC
modifications: 2'-F C/U, dA, 2'-OH G
B15: SEQ ID NO: 36 (ssRNA)
RNA: GGGAGAACUUCGACCAGAAGGUACGUUAGUACGUUUGCAUAUGUACAACCUUGCAUACGAUACGUAGGUUAUGUGCGCAUACAUGGAUCCUC
modifications: 2'-F C/U, dA, 2'-OH G
B16: SEQ ID NO: 23 (ssRNA)
RNA: GGGAGAACUUCGACCAGAAGUGGCACAUCCUGCUGCGUAGUUUCCGUCUGCGUGGCUGUUAUGUGCGCAUACAUGGAUCCUC
modifications: 2'-F C/U, dA, 2'-OH G
B17: SEQ ID NO: 26 (ssRNA)
RNA: B16 RNA with G50U, U53C
modifications: 2'-F C/U, dA, 2'-OH G

What was measured:
Settings in all cases: tags: R&D Systems; chain copies: 2
NT-4 (neurotrophin-4) = molecular target: T1, NT-4 (neurotrophin-4); experiment: cell_activity; TF-1
Excerpt: Using TF-1 cells, whether NGF aptamer inhibits BDNF, NT-3, NT-4 was examined. Human receptor genes (TrkB, TrkC, p75) for respective neurotrophic factors were introduced into TF-1 cells (ATCC Number: CRL-2003), which is a human erythroleukemic cell line, by using a retrovirus vector to give cells that highly express these receptors stably. TF-1 cells introduced with TrkB and p75 were used for the evaluation of inhibitory activity against BDNF, TF-1 cells introduced with TrkC and p75 were used for the evaluation against NT-3, and TF-1 cells introduced with TrkB alone were used for the evaluation against NT-4. These cells were suspended in an RPMI-1640 medium containing 20% fetal bovine serum, and seeded in a white 96 well flat-bottom plate at 1000 cells (50 μL) per well. Thereto was added a mixed solution 50 μL of human BDNF (final concentration 0.074 nM) or NT-3 (final concentration 0.074 nM) or NT-4 (final concentration 0.071 nM) and the aptamer (final concentration 1 μM-0.01 nM), which had been pre-reacted at room temperature for 30 min in a serum-free RPMI-1640 medium, 3 days later, 100 μL of CellTiter-Glo reagent for CellTiter-Glo Luminescent Cell Viability Assay (manufactured by Promega) was added to each well, chemiluminescence was measured by a microplate reader. With the amount of luminescence per well obtained by the addition of BDNF or NT-3 or NT-4 alone and culture of the cells for 3 days as inhibitory activity 0%, and that of the well obtained by culture for 3 days without addition of BDNF or NT-3 or NT-4 as inhibitory activity 100%, the inhibitory activity of the aptamer was calculated from the amount of luminescence per well obtained by culturing with the addition of BDNF or NT-3 or NT-4 and the aptamer in mixture. When the inhibitory activity was 0 or below, ‘0%’ is indicated. The 50% inhibitory concentration (IC₅₀) was determined from the concentrations at two, above and below points sandwiching the 50% inhibitory activity. An IC₅₀ value indicated as “>X” means that the inhibitory activity was not more than 50% when the indicated concentration X was the maximum measured concentration. N.D. means not measured.

[1] = molecular target: T2, NGF (nerve growth factor) (Homo sapiens, UniProt P01138 P01138:122-241); experiment: SPR; more than 40N control
Method: As the measuring apparatus, BIAcore2000 manufactured by BIAcore was used and, as the sensor chip, CM5 that reacts with an amino group was used. […] For the reaction of an amino group on the protein side and a carboxyl group on the chip side, ethyl-3-carbodiimide hydrochloride and N-hydroxysuccinimide were used. After the reaction, blocking by ethanolamine-HCl was performed. The immobilized amount of NGF was set to 3,000-4,000 RU. An aptamer for analyte was prepared to 0.15 μM-0.5 μM. As a running buffer, solution A was used. Here, solution A is a mixed solution of 145 mM sodium chloride, 5.4 mM potassium chloride, 1.8 mM calcium chloride, 0.8 mM magnesium chloride, 20 mM Tris (pH 7.6), 0.05% Tween 20. As a regeneration solution, a mixed solution of 1M NaCl and 50 mM NaOH was used. NGF was immobilized on FC2, and the results of FC1 were subtracted to give a final sensorgram.
The measurement was as shown in Examples 1 and 2 and the surface plasmon resonance method was used.

[2] = molecular target: T2, NGF (nerve growth factor); experiment: SPR; more than 40N control; remark: listed apart in the source

T2 sequence (P01138 122-241, one chain of several): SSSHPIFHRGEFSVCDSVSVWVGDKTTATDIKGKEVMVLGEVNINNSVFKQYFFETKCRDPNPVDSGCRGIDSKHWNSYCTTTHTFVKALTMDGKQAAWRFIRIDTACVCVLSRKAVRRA

Binder | binding result [1] | further results
GGGUCCUGGAUAAGAGUUUCCGUCUCGUAUCCUGUUACCC (ssRNA, as 82(25) except 5' PEG80TS4 instead of idT) [SEQ ID NO: 82(55)] |  | IC50 (NT-4 (neurotrophin-4)): 14.3 nM
GGGUCCUGGAUAAGAGUUUCCGUCUCGUAUCCUGUUACCC (ssRNA, 2'-OMe G (G8,G34 2'-OH), dA, 2'-F C/U; 5',3' idT) [SEQ ID NO: 82(1)] |  | IC50 (NT-4 (neurotrophin-4)): < 100 nM
B1 | binds | 
B2 | binds | 
B3 | binds | 
B4 | binds | 
B5 | binds | 
B6 | binds | 
B7 | binds | 
B8 | binds | 
B9 |  | binding result [2]: binds
B10 | binds | 
B11 | binds | 
B12 | binds | 
B13 | binds | 
B14 | binds | 
B15 | binds | 
B16 | binds | 
B17 | binds | 
